According to US20210261663A1 (JIANGSU HENGRUI MEDICINE, published 2021):

Target: T1, human TIM-3 full-length, overexpressed on CHO-S cells (human, UniProt Q8TDQ0 22-301)
T1 construct: also called HAVCR2; Tim-3 overexpressing CHO-S cells
Test: cell-based ELISA on fixed CHO-S cells overexpressing full-length human TIM-3, HRP secondary antibody, OD450

B1: ABTim-3 (antibody, V domains shown)
VH: QVQLQQPGAELVKPGASVKMSCKASGYTFTSYNMHWIKQTPGQGLEWIGDIYPGNGDTSYNQKFKGKATLTADKSSSTVYMQLSSLTSEDSAVYYCARVGGAFPMDYWGQGTSVTVSS
VL: DIVLTQSPASLAVSLGQRATISCRASESVEYYGTSLMQWYQQKPGQPPKLLIYAASNVESGVPARFSGSGSGTDFSLNIHPVEEDDIAIYFCQQSRKDPSTFGGGTKLEIK
EC50 (read off the curve): ~0.1 nM
